Experimental data: PMC7545097, “Mapping the native interaction surfaces of PREP1 with PBX1 by cross-linking mass-spectrometry and mutagenesis” (Scientific Reports, 2020)

T1: PBX1 I197A (human, UniProt P40424 1-430, I197A)
T1 construct: PBX1, residues 1-430; source: E. coli, purified
T1 sequence (looked up): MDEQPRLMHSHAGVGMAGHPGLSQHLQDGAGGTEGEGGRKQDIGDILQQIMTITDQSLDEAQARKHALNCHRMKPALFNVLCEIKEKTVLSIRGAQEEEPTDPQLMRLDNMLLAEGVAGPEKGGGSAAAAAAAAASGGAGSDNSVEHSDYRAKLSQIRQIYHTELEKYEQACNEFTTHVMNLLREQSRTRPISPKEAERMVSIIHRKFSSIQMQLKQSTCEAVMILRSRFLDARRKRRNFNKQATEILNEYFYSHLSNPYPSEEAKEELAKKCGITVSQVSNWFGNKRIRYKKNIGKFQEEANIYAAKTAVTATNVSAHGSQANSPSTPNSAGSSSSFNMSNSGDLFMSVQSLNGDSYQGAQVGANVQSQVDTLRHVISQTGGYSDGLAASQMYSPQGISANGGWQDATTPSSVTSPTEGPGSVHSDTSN

T2: PBX1 Δ77-84 (human, UniProt P40424 1-430, Δ77−84)
T2 construct: PBX1, residues 1-430, with an internal deletion; source: E. coli, purified
T2 sequence (looked up): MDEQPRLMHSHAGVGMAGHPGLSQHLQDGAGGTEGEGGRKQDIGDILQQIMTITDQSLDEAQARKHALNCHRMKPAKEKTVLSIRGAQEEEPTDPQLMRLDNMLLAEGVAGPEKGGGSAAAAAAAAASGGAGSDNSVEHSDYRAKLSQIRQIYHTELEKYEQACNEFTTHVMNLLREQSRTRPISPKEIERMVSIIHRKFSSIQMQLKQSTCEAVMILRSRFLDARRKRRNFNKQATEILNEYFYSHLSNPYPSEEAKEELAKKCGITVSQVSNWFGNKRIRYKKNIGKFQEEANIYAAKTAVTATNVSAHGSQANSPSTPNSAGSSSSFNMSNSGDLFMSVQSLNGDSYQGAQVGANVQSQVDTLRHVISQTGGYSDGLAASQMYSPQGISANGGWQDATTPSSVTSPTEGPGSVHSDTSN

T3: PBX1 I204A (human, UniProt P40424 1-430, I204A)
T3 construct: PBX1, residues 1-430; source: E. coli, purified
T3 sequence (looked up): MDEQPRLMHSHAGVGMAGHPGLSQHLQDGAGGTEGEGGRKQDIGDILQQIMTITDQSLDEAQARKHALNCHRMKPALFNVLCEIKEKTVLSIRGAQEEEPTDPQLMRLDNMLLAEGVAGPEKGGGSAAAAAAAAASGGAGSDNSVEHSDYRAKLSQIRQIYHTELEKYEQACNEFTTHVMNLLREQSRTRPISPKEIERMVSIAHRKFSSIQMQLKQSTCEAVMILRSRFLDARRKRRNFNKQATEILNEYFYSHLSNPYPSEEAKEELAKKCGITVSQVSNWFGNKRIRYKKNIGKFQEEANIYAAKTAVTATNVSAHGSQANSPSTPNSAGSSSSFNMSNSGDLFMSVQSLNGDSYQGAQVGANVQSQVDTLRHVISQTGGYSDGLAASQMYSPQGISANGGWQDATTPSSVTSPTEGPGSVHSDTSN

T4: PREP1 L66A (UniProt P55347 1-436, L66A)
T4 construct: PREP1 (PKNOX1), residues 1-436
T4 sequence (looked up): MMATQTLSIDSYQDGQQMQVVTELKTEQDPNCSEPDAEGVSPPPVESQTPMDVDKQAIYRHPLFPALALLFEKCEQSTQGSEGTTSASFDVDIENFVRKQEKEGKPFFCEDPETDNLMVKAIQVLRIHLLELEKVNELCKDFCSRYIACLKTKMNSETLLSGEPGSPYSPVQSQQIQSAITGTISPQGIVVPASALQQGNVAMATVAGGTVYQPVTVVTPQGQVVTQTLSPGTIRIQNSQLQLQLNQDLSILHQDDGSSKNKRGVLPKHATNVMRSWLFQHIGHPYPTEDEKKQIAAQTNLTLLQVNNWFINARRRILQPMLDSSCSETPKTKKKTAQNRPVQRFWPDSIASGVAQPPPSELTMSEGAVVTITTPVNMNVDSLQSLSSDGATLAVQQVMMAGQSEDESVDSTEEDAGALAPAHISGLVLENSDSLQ


Columns and labels:
Assay in all cases: time-resolved fluorescence immunoassay (TR-FIA); plate coated with monoclonal anti-PBX1; PBX1 pre-incubated with PREP1 or MEIS1 for 1 h on ice, 10 µg/mL in 1% BSA PBS, 1 h at room temperature on the plate; detected with anti-PREP1 or biotinylated anti-MEIS1/2 and Eu^3+ conjugates; normalised to the wild-type protein taken as 1
Conditions in all cases: both partners purified
PBX1 I197A = target: T1, PBX1 I197A
PBX1 Δ77-84 = target: T2, PBX1 Δ77-84
PBX1 I204A = target: T3, PBX1 I204A
PREP1 L66A = target: T4, PREP1 L66A

Row | binding relative to wild type (PBX1 I197A) | binding relative to wild type (PBX1 Δ77-84) | binding relative to wild type (PBX1 I204A) | binding result (PREP1 L66A) | Binder
1 | ~65% | 35% | ~65% | – | PREP1_(1-436), wild-type recombinant (TR-FIA) (natural protein, UniProt P55347 1-436, looked up, also called wild-type PREP1; PKNOX1; source: E. coli, purified) MMATQTLSIDSYQDGQQMQVVTELKTEQDPNCSEPDAEGVSPPPVESQTPMDVDKQAIYRHPLFPLLALLFEKCEQSTQGSEGTTSASFDVDIENFVRKQEKEGKPFFCEDPETDNLMVKAIQVLRIHLLELEKVNELCKDFCSRYIACLKTKMNSETLLSGEPGSPYSPVQSQQIQSAITGTISPQGIVVPASALQQGNVAMATVAGGTVYQPVTVVTPQGQVVTQTLSPGTIRIQNSQLQLQLNQDLSILHQDDGSSKNKRGVLPKHATNVMRSWLFQHIGHPYPTEDEKKQIAAQTNLTLLQVNNWFINARRRILQPMLDSSCSETPKTKKKTAQNRPVQRFWPDSIASGVAQPPPSELTMSEGAVVTITTPVNMNVDSLQSLSSDGATLAVQQVMMAGQSEDESVDSTEEDAGALAPAHISGLVLENSDSLQ
2 | – | – | – | binds | PBX1_(1-430), wild-type recombinant (natural protein, human, UniProt P40424 1-430, looked up, also called wild-type PBX1; purified recombinant human PBX1; source: E. coli, purified) MDEQPRLMHSHAGVGMAGHPGLSQHLQDGAGGTEGEGGRKQDIGDILQQIMTITDQSLDEAQARKHALNCHRMKPALFNVLCEIKEKTVLSIRGAQEEEPTDPQLMRLDNMLLAEGVAGPEKGGGSAAAAAAAAASGGAGSDNSVEHSDYRAKLSQIRQIYHTELEKYEQACNEFTTHVMNLLREQSRTRPISPKEIERMVSIIHRKFSSIQMQLKQSTCEAVMILRSRFLDARRKRRNFNKQATEILNEYFYSHLSNPYPSEEAKEELAKKCGITVSQVSNWFGNKRIRYKKNIGKFQEEANIYAAKTAVTATNVSAHGSQANSPSTPNSAGSSSSFNMSNSGDLFMSVQSLNGDSYQGAQVGANVQSQVDTLRHVISQTGGYSDGLAASQMYSPQGISANGGWQDATTPSSVTSPTEGPGSVHSDTSN
